Source: US20200392203A1 (YEDA RESEARCH AND DEVELOPMENT, published 2020)

T1: native spike complex (glycoprotein complex, GPC) of Machupo virus (MACV) (Machupo virus (MACV), UniProt Q6IUF7 2-496)
T1 sequence: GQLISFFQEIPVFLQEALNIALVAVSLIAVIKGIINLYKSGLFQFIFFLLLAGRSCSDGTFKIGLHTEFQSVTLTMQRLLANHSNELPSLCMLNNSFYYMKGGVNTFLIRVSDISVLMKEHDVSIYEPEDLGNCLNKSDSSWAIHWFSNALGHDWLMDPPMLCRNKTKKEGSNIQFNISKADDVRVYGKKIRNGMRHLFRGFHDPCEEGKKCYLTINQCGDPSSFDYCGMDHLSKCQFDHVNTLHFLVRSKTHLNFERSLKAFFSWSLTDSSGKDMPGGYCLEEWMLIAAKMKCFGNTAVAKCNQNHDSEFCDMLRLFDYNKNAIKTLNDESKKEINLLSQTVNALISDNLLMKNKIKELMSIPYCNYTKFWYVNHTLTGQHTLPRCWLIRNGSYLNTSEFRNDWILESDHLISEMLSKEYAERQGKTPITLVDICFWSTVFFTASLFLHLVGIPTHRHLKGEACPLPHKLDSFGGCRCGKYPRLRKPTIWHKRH


Tests used:
[1] = target: native spike complex (glycoprotein complex, GPC) of Junin virus (JUNV) (Junin virus (JUNV)); assay: cell-based or functional assay
[2] = target: native spike complex (glycoprotein complex, GPC) of Sabia virus (SABV) (Sabia virus (SABV)); assay: cell-based or functional assay
[3] = target: GP1JUNV-Fc (GP1 domain of Junin virus fused at its C' terminus to an antibody Fc portion) (Junin virus (JUNV)); assay: SPR (Biacore T200), single cycle kinetics; […]; 1:1 model
[4] = target: GP1MACV-Fc (GP1 domain of Machupo virus fused at its C' terminus to an antibody Fc portion) (Machupo virus (MACV)) (UniProt Q6IUF7); assay: as above
[5] = target: GP1SBOV-Fc (GP1 domain of Sabia virus fused at its C' terminus to an antibody Fc portion) (Sabia virus (SABV)); assay: SPR (Biacore T200), single-cycle kinetics; […]; 1:1 model fit
[6] = target: T1, native spike complex (glycoprotein …); assay: cell-based or functional assay

Molecule	IC50 values (µg/ml), neutralization of pseudotyped virus [1] [µg/mL]	IC50 values (µg/ml), neutralization of pseudotyped virus [2] [µg/mL]	Kd [3] [nM]	Kd [4] [nM]	Kd [5] [nM]	pseudovirus neutralisation, IC50 (read off the curve) [6] [nM]
Arenacept (sAD fused at its C'-terminus to an Fc portion of IgG1) (Fc fusion)	2.4	3.5				
soluble apical domain (sAD) of Neotoma albigula (White-throated woodrat) TfR1 (receptor) GSKIQVKCSAPNSVTITNASGGLYLVEYPEGYVAYSKATEVTGKLVHANFGTKKDFEDLDYAVNGSIVIVRAGKITIAEKVANAQSFNAIGVLIYKDRTKYPISRADEPLQGHSGLPSIPVQTISREAAEKLFQNMERDCPRSWNTDSSCKLELLQNRNVKLTVNNCLKE			1000	4	63	~10
